How the values were obtained:
[1] = biological target: HLA-A2 molecule, product of the HLA-A*0201 gene, on JY cells (human); assay: flow cytometry; acid-stripped JY cells reassociated with b2m and peptide dilutions, stained with labeled mAb BB7.2; settings: remark: other sources report otherwise
[2] = biological target: HLA-A24 molecule, product of the HLA-A*2402 gene, on C1R-A24 cells (human); assay: flow cytometry; acid-stripped C1R-A24 cells reassociated with b2m and peptide dilutions, stained with labeled mAb 17A12; settings: remark: other sources report otherwise

B1: SEQ ID NO 61 (…), HLA-A2-binding 10 amino acid peptide of survivin (peptide)
peptide: FLKDHRISTF
For B1, which -log Kd (-log Kd (Kd in molar concentration)) [1] is on record?
Its -log Kd (-log Kd (Kd in molar concentration)) is 5.53.

B2: SEQ ID NO 23 (…), HLA-A2-binding 9 amino acid peptide of survivin (peptide)
peptide: TLPPAWQPF
B2 was tested. Which -log Kd (-log Kd (Kd in molar concentration)) [1] did it give?
The -log Kd (-log Kd (Kd in molar concentration)) was 5.36.

B3: SEQ ID NO 1 (…), HLA-A24-binding 9 amino acid peptide of survivin (peptide)
peptide: TLPPAWQPF
B3 was tested. Which -log Kd (-log Kd (Kd in molar concentration)) [2] did it give?
The -log Kd (-log Kd (Kd in molar concentration)) was 8.26.

B4: SEQ ID NO 44 (…), HLA-A24-binding 10 amino acid peptide of survivin (peptide)
peptide: FLKDHRISTF
With B4 as the binder, how does the -log Kd (-log Kd (Kd in molar concentration)) [2] read?
The -log Kd (-log Kd (Kd in molar concentration)) was 7.01.
